Results on two proteins are retold here after PMC4331669, “Phosphatidylinositol binding of Saccharomyces cerevisiae Pdr16p represents an essential feature of this lipid transfer protein to provide protection against azole antifungals” (Biochimica et Biophysica Acta. Molecular and Cell Biology …, 2014).

This data set concerns the molecule itself. Nature of the data set: SEC; Superose 12 10/300 GL, 20 mM PIPES pH 6.8, 250 mM NaCl, 2.7 mM KCl, 0.4 ml/min; BSA and ovalbumin as molecular weight standards; apparent mass about 90 kDa against a predicted monomer of 40.7 kDa.

B1: Pdr16p (wild-type, recombinant Pdr16-His) (natural protein, S. cerevisiae, UniProt P53860 1-351, looked up)
chain: MFKRFSKKKEAPEDPKNLINIDKPIKELPASIAIPKEKPLTGEQQKMYDEVLKHFSNPDLKVYTSEKNKSEDDLKPLEEEEKAWLTRECFLRYLRATKWVLKDCIDRITMTLAWRREFGISHLGEEHGDKITADLVAVENESGKQVILGYENDARPILYLKPGRQNTKTSHRQVQHLVFMLERVIDFMPAGQDSLALLIDFKDYPDVPKVPGNSKIPPIGVGKEVLHILQTHYPERLGKALLTNIPWLAWTFLKLIHPFIDPLTREKLVFDEPFVKYVPKNELDSLYGGDLKFKYNHDVYWPALVETAREKRDHYFKRFQSFGGIVGLSEVDLRGTHEKLLYPVKSESSTV
notes: Pdr16p (Sfh3p) of Saccharomyces cerevisiae, ORF PDR16 amplified from YEplac181-PDR16 and inserted between NdeI and NotI of pET26; predicted monomer mass 40.7 kDa; The whole ORF was cloned NdeI-NotI into pET26 with a C-terminal 6xHis; No removal of the tag is described; also called Sfh3p; source: E. coli Rosetta, purified (Ni-NTA agarose)
As to B1, the “stoichiometry N” value was 2.

B2: Pdr16p^(E235A, K267A) (recombinant Pdr16^(E235A, K267A)-His) (natural protein, S. cerevisiae, UniProt P53860 1-351, looked up)
chain: MFKRFSKKKEAPEDPKNLINIDKPIKELPASIAIPKEKPLTGEQQKMYDEVLKHFSNPDLKVYTSEKNKSEDDLKPLEEEEKAWLTRECFLRYLRATKWVLKDCIDRITMTLAWRREFGISHLGEEHGDKITADLVAVENESGKQVILGYENDARPILYLKPGRQNTKTSHRQVQHLVFMLERVIDFMPAGQDSLALLIDFKDYPDVPKVPGNSKIPPIGVGKEVLHILQTHYPARLGKALLTNIPWLAWTFLKLIHPFIDPLTREALVFDEPFVKYVPKNELDSLYGGDLKFKYNHDVYWPALVETAREKRDHYFKRFQSFGGIVGLSEVDLRGTHEKLLYPVKSESSTV
notes: Same construct as m1 with the two point mutations; source: E. coli Rosetta, purified (Ni-NTA agarose)
B2: the “stoichiometry N” value is 2.
